In test [1] the target is T1, FcγRIa extracellular domain with C-terminal His tag (human, UniProt P12314 16-292).
T1 construct: extracellular domain; Soluble receptor used as analyte in Biacore; also called FcgRI; FcgRIa
In words: SPR Biacore, antibody captured on antigen-peptide chip, FcγR as analyte.
T1 sequence (P12314 16-292): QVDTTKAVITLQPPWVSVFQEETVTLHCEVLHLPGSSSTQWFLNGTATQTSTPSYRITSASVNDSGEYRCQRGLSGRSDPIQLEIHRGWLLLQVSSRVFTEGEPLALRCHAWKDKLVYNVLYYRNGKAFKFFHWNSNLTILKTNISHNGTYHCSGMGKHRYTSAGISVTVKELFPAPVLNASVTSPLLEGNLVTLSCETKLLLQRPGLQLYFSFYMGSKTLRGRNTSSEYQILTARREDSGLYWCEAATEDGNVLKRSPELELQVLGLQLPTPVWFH

The target in test [2] is T2, FcγRIIb extracellular domain with C-terminal His tag (human, UniProt P31994 43-217).
T2 construct: extracellular domain; Soluble receptor used as analyte in Biacore; also called FcgRIIb; CD32B
T2 sequence (looked up): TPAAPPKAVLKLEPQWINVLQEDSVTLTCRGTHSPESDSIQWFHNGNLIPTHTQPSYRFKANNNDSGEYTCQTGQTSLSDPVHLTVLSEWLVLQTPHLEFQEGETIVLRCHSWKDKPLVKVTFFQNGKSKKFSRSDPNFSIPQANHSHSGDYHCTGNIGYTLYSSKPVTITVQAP
Described as above.

The target in test [3] is T3, FcγRIIb extracellular domain with C-terminal His tag (human, UniProt P31994 43-217).
T3 construct: extracellular domain; also called FcgRIIb; 2b
T3 sequence (looked up): T2 sequence (looked up)
Kind of test: SPR (Biacore), antibody captured via antigen peptide, FcγR as analyte; relative binding. On the procedure:
(§1) The heterodimerized antibodies He Abs in which one of the H chains was introduced with an alteration were assayed for their binding activities to each activating FcγR and inhibitory FcγR according to the method described in Example 4. […] The activating FcγRs in FIGS. 26, 27, 28, and 29 are FcγRIa, FcγRIIa (R), FcγRIIa (H), and FcγRIIIa, respectively.
(§2) Analysis of interaction between objective antibody and the FcγR was carried out using Biacore T100 (GE Healthcare). HBS-EP+ (GE Healthcare) was used as the running buffer, and the measurement temperature was set to 25° C. Chips produced by immobilizing the antigen peptide by the amine coupling method to a Series S Sencor Chip CM5 (GE Healthcare), or alternatively, chips produced by allowing preliminarily biotinylated antigen peptides to interact with and immobilize onto a Series S Sensor Chip SA (certified) (GE Healthcare) were used. Antibodies of interest were captured onto an antigen peptide-immobilized chip, and allowed to interact to each FcγR diluted with running buffer. To regenerate and repeatedly use the chip, the antibodies captured on the chip were washed off by reacting 10 mM glycine-HCl, pH 1.5.
In general terms: Surface plasmon resonance follows binding to a sensor surface in real time, without labels.

Test [4] concerns the target T4, FcγRIa extracellular domain with C-terminal His tag (human, UniProt P12314 16-292).
T4 construct: extracellular domain; also called FcgRI; 1a
The test is described as above. On the procedure:
as §1, §2
T4 sequence (P12314 16-292): as the sequence (P12314 16-292) above

Test [5] has as its target T4, FcγRIa extracellular domain with …. Kind of test: SPR (Biacore); He/Con_1a divided by He/Con_2b (FcγRIa binding over FcγRIIb binding). On the procedure:
as §1, §2

B1: GpH7-A5/GpH7-B3 variant S267_15Y/GpL16-k0 (antibody, human IgG1, kappa)
heavy 1: not shown
heavy 2: not shown
light: DIVMTQSPLSLPVTPGEPASISCQASESLVHSNRNTYLHWYLQKPGQSPQLLIYKVSNRFSGVPDRFSGSGSGTDFTLKISRVEAEDVGVYYCSQNTHVPPTFGQGTKVEIERTVAAPSVFIFPPSDEQLKSGTASVVCLLNNFYPREAKVQWKVDNALQSGNSQESVTEQDSKDSTYSLSSTLTLSKADYEKHKVYACEVTHQGLSSPVTKSFNRGEC
notes: Heterodimerized anti-glypican-3 IgG1; mutation in the GpH7-B3 chain only; also called He Ab S267Y
Take B1: the He/Con_1a in test [1] was 94.2 relative, GpH7-A5/GpH7-B3/GpL16-k0 = 100. In addition, the He/Con_2b in test [2] is 37.9 relative, GpH7-A5/GpH7-B3/GpL16-k0 = 100.

B2: GpH7-A5/GpH7-B3 variant Q295_01G/GpL16-k0 (antibody, human IgG1, kappa)
heavy 1: not shown
heavy 2: not shown
light: B1 light
notes: Heterodimerized anti-glypican-3 IgG1; alteration only in the GpH7-B3 chain, EU numbering; also called He Ab
As to B2, the He/Con_2b in test [3] is 46 % of GpH7-A5/GpH7-B3/GpL16-k0 (=100). In test [4], the He/Con_1a was 97.6 % of GpH7-A5/GpH7-B3/GpL16-k0 (=100). Also, the “He_1a/2b (Ia/IIb)” value in test [5] turned out to be 2.12 ratio.

B3: GpH7-A5/GpH7-B3 variant Q295_07I/GpL16-k0 (antibody, human IgG1, kappa)
heavy 1: not shown
heavy 2: not shown
light: B1 light
notes: as for B2
For the molecule B3, the He/Con_2b in test [3] is 84.3 % of GpH7-A5/GpH7-B3/GpL16-k0 (=100). Besides, the He/Con_1a in test [4] was 103 % of GpH7-A5/GpH7-B3/GpL16-k0 (=100). Besides, the “He_1a/2b (Ia/IIb)” value in test [5] stood at 1.22 ratio.

B4: GpH7-A5/GpH7-B3 variant Q295_12R/GpL16-k0 (antibody, human IgG1, kappa)
heavy 1: not shown
heavy 2: not shown
light: B1 light
notes: as for B2
Take B4: the He/Con_2b in test [3] was 65.2 % of GpH7-A5/GpH7-B3/GpL16-k0 (=100). For the same molecule, the He/Con_1a in test [4] is 100 % of GpH7-A5/GpH7-B3/GpL16-k0 (=100). The “He_1a/2b (Ia/IIb)” value in test [5] is 1.54 ratio.

B5: GpH7-A5/GpH7-B3 variant V266_18N/GpL16-k0 (antibody, human IgG1, kappa)
heavy 1: not shown
heavy 2: not shown
light: B1 light
notes: Heterodimerized anti-glypican-3 IgG1; mutation in the GpH7-B3 chain only; also called He Ab V266N
With B5, the He/Con_1a in test [1] was 99.5 relative, GpH7-A5/GpH7-B3/GpL16-k0 = 100. Also, in test [2], the He/Con_2b was 69.7 relative, GpH7-A5/GpH7-B3/GpL16-k0 = 100.

B6: GpH7-A5/GpH7-B3 variant S298_04F/GpL16-k0 (antibody, human IgG1, kappa)
heavy 1: not shown
heavy 2: not shown
light: B1 light
notes: as for B2
Regarding B6, in test [3], the He/Con_2b is 65.4 % of GpH7-A5/GpH7-B3/GpL16-k0 (=100). Further, the He/Con_1a in test [4] is 109 % of GpH7-A5/GpH7-B3/GpL16-k0 (=100). The “He_1a/2b (Ia/IIb)” value in test [5] worked out at 1.67 ratio.

B7: GpH7-A5/GpH7-B3 variant S267_20W/GpL16-k0 (antibody, human IgG1, kappa)
heavy 1: not shown
heavy 2: not shown
light: B1 light
notes: Heterodimerized anti-glypican-3 IgG1; mutation in the GpH7-B3 chain only; also called He Ab S267W
In the case of B7, the He/Con_1a in test [1] is 99.4 relative, GpH7-A5/GpH7-B3/GpL16-k0 = 100. Also, the He/Con_2b in test [2] was 57.2 relative, GpH7-A5/GpH7-B3/GpL16-k0 = 100.

B8: GpH7-A5/GpH7-B3 variant Q295_13S/GpL16-k0 (antibody, human IgG1, kappa)
heavy 1: not shown
heavy 2: not shown
light: B1 light
notes: as for B2
With B8, the He/Con_2b in test [3] was 56.9 % of GpH7-A5/GpH7-B3/GpL16-k0 (=100). In addition, the He/Con_1a in test [4] is 102 % of GpH7-A5/GpH7-B3/GpL16-k0 (=100). For the same molecule, the “He_1a/2b (Ia/IIb)” value in test [5] was 1.79 ratio.

B9: GpH7-A5/GpH7-B3 variant Y296_01G/GpL16-k0 (antibody, human IgG1, kappa)
heavy 1: not shown
heavy 2: not shown
light: B1 light
notes: as for B2
With B9, the He/Con_2b in test [3] is 79.3 % of GpH7-A5/GpH7-B3/GpL16-k0 (=100). For the same molecule, in test [4], the He/Con_1a was 103 % of GpH7-A5/GpH7-B3/GpL16-k0 (=100). Besides, the “He_1a/2b (Ia/IIb)” value in test [5] amounted to 1.29 ratio.

B10: GpH7-A5/GpH7-B3 variant S298_05P/GpL16-k0 (antibody, human IgG1, kappa)
heavy 1: not shown
heavy 2: not shown
light: B1 light
notes: as for B2
As to B10, the He/Con_2b in test [3] is 11.9 % of GpH7-A5/GpH7-B3/GpL16-k0 (=100). In addition, the He/Con_1a in test [4] is 91.6 % of GpH7-A5/GpH7-B3/GpL16-k0 (=100). The “He_1a/2b (Ia/IIb)” value in test [5] turned out to be 7.7 ratio.

B11: GpH7-A5/GpH7-B3 variant V266_16H/GpL16-k0 (antibody, human IgG1, kappa)
heavy 1: not shown
heavy 2: not shown
light: B1 light
notes: Heterodimerized anti-glypican-3 IgG1; mutation in the GpH7-B3 chain only; also called He Ab V266H
For B11, the He/Con_1a in test [1] is 89.1 relative, GpH7-A5/GpH7-B3/GpL16-k0 = 100. Moreover, the He/Con_2b in test [2] is 57.2 relative, GpH7-A5/GpH7-B3/GpL16-k0 = 100.

B12: GpH7-A5/GpH7-B3 variant Q295_09D/GpL16-k0 (antibody, human IgG1, kappa)
heavy 1: not shown
heavy 2: not shown
light: B1 light
notes: as for B2
Regarding B12, the He/Con_2b in test [3] was 60.8 % of GpH7-A5/GpH7-B3/GpL16-k0 (=100). Moreover, the He/Con_1a in test [4] is 100 % of GpH7-A5/GpH7-B3/GpL16-k0 (=100). For the same molecule, the “He_1a/2b (Ia/IIb)” value in test [5] is 1.65 ratio.

B13: GpH7-A5/GpH7-B3 variant S298_01G/GpL16-k0 (antibody, human IgG1, kappa)
heavy 1: not shown
heavy 2: not shown
light: B1 light
notes: as for B2
B13: in test [3], the He/Con_2b was 80.1 % of GpH7-A5/GpH7-B3/GpL16-k0 (=100). Moreover, the He/Con_1a in test [4] is 104 % of GpH7-A5/GpH7-B3/GpL16-k0 (=100). In addition, in test [5], the “He_1a/2b (Ia/IIb)” value was 1.29 ratio.

B14: GpH7-A5/GpH7-B3 variant S298_07I/GpL16-k0 (antibody, human IgG1, kappa)
heavy 1: not shown
heavy 2: not shown
light: B1 light
notes: as for B2
Turning to B14, in test [3], the He/Con_2b is 70.6 % of GpH7-A5/GpH7-B3/GpL16-k0 (=100). Also, the He/Con_1a in test [4] is 107 % of GpH7-A5/GpH7-B3/GpL16-k0 (=100). Also, the “He_1a/2b (Ia/IIb)” value in test [5] amounted to 1.52 ratio.

B15: GpH7-A5/GpH7-B3 variant Q295_02A/GpL16-k0 (antibody, human IgG1, kappa)
heavy 1: not shown
heavy 2: not shown
light: B1 light
notes: as for B2
B15: the He/Con_2b in test [3] is 79.7 % of GpH7-A5/GpH7-B3/GpL16-k0 (=100). The He/Con_1a in test [4] is 104 % of GpH7-A5/GpH7-B3/GpL16-k0 (=100). Also, in test [5], the “He_1a/2b (Ia/IIb)” value worked out at 1.31 ratio.

B16: GpH7-A5/GpH7-B3 variant Q295_16H/GpL16-k0 (antibody, human IgG1, kappa)
heavy 1: not shown
heavy 2: not shown
light: B1 light
notes: as for B2
In the case of B16, the He/Con_2b in test [3] is 62.7 % of GpH7-A5/GpH7-B3/GpL16-k0 (=100). Further, in test [4], the He/Con_1a is 102 % of GpH7-A5/GpH7-B3/GpL16-k0 (=100). Also, the “He_1a/2b (Ia/IIb)” value in test [5] was 1.64 ratio.

The values are drawn from patent publication US20150344570A1 (published 2015).
